These results are taken from the supplement of paper PMC5998384.

The test system of data set [1] is HeLa Kyoto. Briefly: solubility in G1/S (NP-40 vs SDS abundance) (log2 ratio); higher = more soluble. Conditions: cell cycle stage: G1/S.
Data set [2] has as its system HeLa Kyoto. Briefly: melting temperature (median over replicates), in situ; higher = more thermally stable.
Data set [3] deals with HeLa Kyoto. In words: solubility change mitosis vs G1/S (difference of NP-40 vs SDS log2 ratios) (log2 ratio difference); higher = more soluble in mitosis.
In data set [4] the test system is HeLa Kyoto. In words: thermal stability score vs G1/S (z-score of summed log2 fold changes over temperatures); higher = more thermally stable than in G1/S.
Where [5] appears, read: cell cycle stage: early G1 (4.5 h after nocodazole release).
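For melting temperature (median over replicates), in situ in this document: HeLa Kyoto cells synchronized by double thymidine or nocodazole block, proteins quantified by TMT10plex mass spectrometry, three independent biological replicates.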
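For solubility change mitosis vs G1/S (difference of NP-40 vs SDS log2 ratios) in this document: synchronized HeLa Kyoto cells (double thymidine block for G1/S, nocodazole release for mitosis), protein amounts in NP-40 versus SDS lysates quantified by mass spectrometry, three biological replicates.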
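For solubility in G1/S (NP-40 vs SDS abundance) in this document: HeLa Kyoto cells arrested at G1/S by double thymidine block, proteins quantified by TMT10plex mass spectrometry in mild NP-40 versus SDS extracts, three biological replicates.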
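For thermal stability score vs G1/S (z-score of summed log2 fold changes over temperatures) in this document: synchronized HeLa Kyoto cells, proteins quantified by TMT10plex mass spectrometry, three biological replicates, mitosis taken 0.5 h after nocodazole release, G1/S directly after double thymidine block.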

In the case of “MAVVAAAAGWLLRLRAAGAEGHWRRLPGAGLARGFLHPAATVEDAAQRRQVAHFTFQPDPEPREYGQTQKMNLFQSVTSALDNSLAKDPTAVIFGEDVAFGGVFRCTVGLRDKYGKDRVFNTPLCEQGIVGFGIGIAVTGATAIAEIQFADYIFPAFDQIVNEAAKYRYRSGDLFNCGSLTIRSPWGCVGHGALYHSQSPEAFFAHCPGIKVVIPRSPFQAKGLLLSCIEDKNPCIFFEPKILYRAAAEEVPIEPYNIPLSQAEVIQEGSDVTLVAWGTQVHVIREVASMAKEKLGVSCEVIDLRTIIPWDVDTICKSVIKTGRLLISHEAPLTGGFASEISSTVQEECFLNLEAPISRVCGYDTPFPHIFEPFYIPDKWKCYDALRKMINY [BCKDHB]”, in data set [1], the “solubility in G1/S (log2)” value was -0.09. For the same sequence, the melting temperature came out at 52.6 °C in data set [2] (cell cycle stage: G1/S) and 52 °C in data set [2] (cell cycle stage: mitosis). Also, the “solubility change mitosis (log2)” value in data set [3] is -0.179. In addition, the thermal stability score in data set [4] (setting [5]) is -0.96; in data set [4] (cell cycle stage: mitosis), -1.83.

“MAVYRAALGASLAAARLLPLGRCSPSPAPRSTLSGAAMEPAPRWLAGLRFDNRALRALPVEAPPPGPEGAPSAPRPVPGACFTRVQPTPLRQPRLVALSEPALALLGLGAPPAREAEAEAALFFSGNALLPGAEPAAHCYCGHQFGQFAGQLGDGAAMYLGEVCTATGERWELQLKGAGPTPFSRQADGRKVLRSSIREFLCSEAMFHLGVPTTRAGACVTSESTVVRDVFYDGNPKYEQCTVVLRVASTFIRFGSFEIFKSADEHTGRAGPSVGRNDIRVQLLDYVISSFYPEIQAAHASDSVQRNAAFFREVTRRTARMVAEWQCVGFCHGVLNTDNMSILGLTIDYGPFGFLDRYDPDHVCNASDNTGRYAYSKQPEVCRWNLRKLAEALQPELPLELGEAILAEEFDAEFQRHYLQKMRRKLGLVQVELEEDGALVSKLLETMHLTGADFTNTFYLLSSFPVELESPGLAEFLARLMEQCASLEELRLAFRPQMDPRQLSMMLMLAQSNPQLFALMGTRAGIARELERVEQQSRLEQLSAAELQSRNQGHWADWLQAYRARLDKDLEGAGDAAAWQAEHVRVMHANNPKYVLRNYIAQNAIEAAERGDFSEVRRVLKLLETPYHCEAGAATDAEATEADGADGRQRSYSSKPPLWAAELCVTUSS [SELO]”: the “solubility in G1/S (log2)” value in data set [1] was -0.0646. Also, the melting temperature in data set [2] (cell cycle stage: G1/S) is 47.8 °C; in data set [2] (cell cycle stage: mitosis), 49.1 °C. Moreover, in data set [3], the “solubility change mitosis (log2)” value is -0.115. In addition, the thermal stability score came to 3 in data set [4] (setting [5]) and 3.57 in data set [4] (cell cycle stage: mitosis).

For the sequence “MAVYVGMLRLGRLCAGSSGVLGARAALSRSWQEARLQGVRFLSSREVDRMVSTPIGGLSYVQGCTKKHLNSKTVGQCLETTAQRVPEREALVVLHEDVRLTFAQLKEEVDKAASGLLSIGLCKGDRLGMWGPNSYAWVLMQLATAQAGIILVSVNPAYQAMELEYVLKKVGCKALVFPKQFKTQQYYNVLKQICPEVENAQPGALKSQRLPDLTTVISVDAPLPGTLLLDEVVAAGSTRQHLDQLQYNQQFLSCHDPINIQFTSGTTGSPKGATLSHYNIVNNSNILGERLKLHEKTPEQLRMILPNPLYHCLGSVAGTMMCLMYGATLILASPIFNGKKALEAISRERGTFLYGTPTMFVDILNQPDFSSYDISTMCGGVIAGSPAPPELIRAIINKINMKDLVVAYGTTENSPVTFAHFPEDTVEQKAESVGRIMPHTEARIMNMEAGTLAKLNTPGELCIRGYCVMLGYWGEPQKTEEAVDQDKWYWTGDVATMNEQGFCKIVGRSKDMIIRGGENIYPAELEDFFHTHPKVQEVQVVGVKDDRMGEEICACIRLKDGEETTVEEIKAFCKGKISHFKIPKYIVFVTNYPLTISGKIQKFKLREQMERHLNL [ACSF2]”, the “solubility in G1/S (log2)” value in data set [1] amounted to 0.27. In addition, the results for the melting temperature in data set [2] (cell cycle stage: G1/S) and in data set [2] (cell cycle stage: mitosis) were 49.4 °C and 49.8 °C, respectively. In addition, the “solubility change mitosis (log2)” value in data set [3] was -0.0628. The thermal stability score was determined as 0.261 in data set [4] (setting [5]) and 0.668 in data set [4] (cell cycle stage: mitosis).

On to “MAWRRREASVGARGVLALALLALALCVPGARGRALEWFSAVVNIEYVDPQTNLTVWSVSESGRFGDSSPKEGAHGLVGVPWAPGGDLEGCAPDTRFFVPEPGGRGAAPWVALVARGGCTFKDKVLVAARRNASAVVLYNEERYGNITLPMSHAGTGNIVVIMISYPKGREILELVQKGIPVTMTIGVGTRHVQEFISGQSVVFVAIAFITMMIISLAWLIFYYIQRFLYTGSQIGSQSHRKETKKVIGQLLLHTVKHGEKGIDVDAENCAVCIENFKVKDIIRILPCKHIFHRICIDPWLLDHRTCPMCKLDVIKALGYWGEPGDVQEMPAPESPPGRDPAANLSLALPDDDGSDDSSPPSASPAESEPQCDPSFKGDAGENTALLEAGRSDSRHGGPIS [RNF149]”, for which, in data set [1], the “solubility in G1/S (log2)” value is -0.136. Moreover, the melting temperature was 53.8 °C in data set [2] (cell cycle stage: G1/S) and 54.1 °C in data set [2] (cell cycle stage: mitosis). The “solubility change mitosis (log2)” value in data set [3] is -0.076. The values for the thermal stability score in data set [4] (setting [5]) and in data set [4] (cell cycle stage: mitosis) were -0.202 and -3.79, respectively.

In the case of “MCDFTEDQTAEFKEAFQLFDRTGDGKILYSQCGDVMRALGQNPTNAEVLKVLGNPKSDEMNVKVLDFEHFLPMLQTVAKNKDQGTYEDYVEGLRVFDKEGNGTVMGAEIRHVLVTLGEKMTEEEVEMLVAGHEDSNGCINYEAFVRHILSG [MYL6]”, in data set [1], the “solubility in G1/S (log2)” value was -0.12. In addition, the melting temperature turned out to be 51.8 °C in data set [2] (cell cycle stage: G1/S) and 51.7 °C in data set [2] (cell cycle stage: mitosis). Further, the “solubility change mitosis (log2)” value in data set [3] came out at 0.21. The thermal stability score in data set [4] (setting [5]) is -3.33; in data set [4] (cell cycle stage: mitosis), -1.53.

Take “MCDIEEATNQLLDVNLHENQKSVQVTESDLGSESELLVTIGATVPTGFEQTAADEVREKLGSSCKISRDRGKIYFVISVESLAQVHCLRSVDNLFVVVQEFQDYQFKQTKEEVLKDFEDLAGKLPWSNPLKVWKINASFKKKKAKRKKINQNSSKEKINNGQEVKIDQRNVKKEFTSHALDSHILDYYENPAIKEDVSTLIGDDLASCKDETDESSKEETEPQVLKFRVTCNRAGEKHCFTSNEAARDFGGAVQDYFKWKADMTNFDVEVLLNIHDNEVIVGIALTEESLHRRNITHFGPTTLRSTLAYGMLRLCDPLPYDIIVDPMCGTGAIPIEGATEWSDCFHIAGDNNPLAVNRAANNIASLLTKSQIKEGKPSWGLPIDAVQWDICNLPLRTGSVDIIVTDLPFGKRMGSKKRNWNLYPACLREMSRVCTPTTGRAVLLTQDTKCFTKALSGMRHVWRKVDTVWVNVGGLRAAVYVLIRTPQAFVHPSEQDGERGTLWQCKE [THUMPD3]”: in data set [1], the “solubility in G1/S (log2)” value is 0.109. For the same sequence, the melting temperature stood at 52.9 °C in data set [2] (cell cycle stage: G1/S) and 53 °C in data set [2] (cell cycle stage: mitosis). Also, the “solubility change mitosis (log2)” value in data set [3] is -0.147. Besides, the thermal stability score in data set [4] (setting [5]) was -1; in data set [4] (cell cycle stage: mitosis) it was -2.07.
